Data taken from IntAct's records for PubMed 15893672.

B1: Angiopoietin-2 (Homo sapiens), O15123-1 (parent)
chain: MWQIVFFTLSCDLVLAAAYNNFRKSMDSIGKKQYQVQHGSCSYTFLLPEMDNCRSSSSPYVSNAVQRDAPLEYDDSVQRLQVLENIMENNTQWLMKLENYIQDNMKKEMVEIQQNAVQNQTAVMIEIGTNLLNQTAEQTRKLTDVEAQVLNQTTRLELQLLEHSLSTNKLEKQILDQTSEINKLQDKNSFLEKKVLAMEDKHIIQLQSIKEEKDQLQVLVSKQNSIIEELEKKIVTATVNNSVLQKQQHDLMETVNNLLTMMSTSNSAKDPTVAKEEQISFRDCAEVFKSGHTTNGIYTLTFPNSTEEIKAYCDMEAGGGGWTIIQRREDGSVDFQRTWKEYKVGFGNPSGEYWLGNEFVSQLTNQQRYVLKIHLKDWEGNEAYSLYEHFYLSSEELNYRIHLKGLTGTAGKISSISQPGNDFSTKDGDNDKCICKCSQMLTGGWWFDACGPSNLNGMYYPQRQNTNKFNGIKWYYWKGSGYSLKATTMMIRPADF

Variants of: B1
Details: with tie2_human TEK
In the case of F469A;Y475A;Y476A, the “effect of a mutation on the interaction” value is reported as “disrupting interaction”. For K468E;K473E, the “effect of a mutation on the interaction” value was “disrupting interaction”.
